Results published in article PMC7235295, “Cytoplasmic TDP43 Binds microRNAs: New Disease Targets in Amyotrophic Lateral Sclerosis”.

Target: TDP43 (natively folded full-length, ab224788) (UniProt Q13148 1-414)
Assay: ELISA (immobilized miRNA titration, EC50); 5 nM TDP43; AC/TG nonspecific oligo 1 ug/ml; EMSA: 14 mM Tris pH 8.0, 35 mM KCl, 14 mM NaCl, 1.4 mM MgCl2, 14% glycerol, 0.7 mM DTT, 30 min RT, 5 nM RNA, gel at 4 C; ELISA: 20 mM HEPES pH 7.5, 150 mM NaCl, 1.5 mM MgCl2, 0.05% Tween 20, 0.5 mM DTT, 1 ug/ml AC/TG oligo, 0.2% BSA, 12 h 4 C
Settings: protein: commercial; label: 3'-biotin; single strand

Sequence of TDP43 (natively folded full-length, ab224788) (Q13148 whole entry): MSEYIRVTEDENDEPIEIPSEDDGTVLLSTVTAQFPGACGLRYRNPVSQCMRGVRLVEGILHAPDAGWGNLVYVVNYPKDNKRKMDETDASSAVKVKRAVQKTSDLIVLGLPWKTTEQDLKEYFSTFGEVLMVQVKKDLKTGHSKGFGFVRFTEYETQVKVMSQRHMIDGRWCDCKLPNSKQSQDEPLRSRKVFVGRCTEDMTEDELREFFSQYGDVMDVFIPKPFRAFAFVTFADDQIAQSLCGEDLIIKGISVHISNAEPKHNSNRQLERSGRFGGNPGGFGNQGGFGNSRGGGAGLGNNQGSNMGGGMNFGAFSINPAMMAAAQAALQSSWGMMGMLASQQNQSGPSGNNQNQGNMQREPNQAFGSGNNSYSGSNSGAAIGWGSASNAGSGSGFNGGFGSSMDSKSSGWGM

Binder	apparent K (half saturation)
UGAGUGUGUGUGUGUGAGUGUGU (ssRNA) [miR-574-5p (ELISA)]	2.84 nM
AAUGGCGCCACUAGGGUUGUG (ssRNA) [miR-652-3p]	6.41 nM
UUCCCUUUGUCAUCCUAUGCCU (ssRNA) [miR-204-5p]	37.7 nM
